This assay deals with T1, Pneumolysin, 57 kDa (full length w/His-tag) (Streptococcus pneumoniae, UniProt Q04IN8 2-471).
T1 construct: also called Antigen; PLY
The assay is described as follows: SPR, Mab captured on Protein-G chip. For orientation: In SPR one partner is held on a chip, and binding of the other changes the refractive index at the surface.

Broadly, the Kd is a measure of binding affinity in units of concentration. A low value points to higher affinity. The koff is a measure of how fast the partners let go of each other. For orientation: kon means a measure of how fast the partners come together.

T1 sequence (Q04IN8 2-471): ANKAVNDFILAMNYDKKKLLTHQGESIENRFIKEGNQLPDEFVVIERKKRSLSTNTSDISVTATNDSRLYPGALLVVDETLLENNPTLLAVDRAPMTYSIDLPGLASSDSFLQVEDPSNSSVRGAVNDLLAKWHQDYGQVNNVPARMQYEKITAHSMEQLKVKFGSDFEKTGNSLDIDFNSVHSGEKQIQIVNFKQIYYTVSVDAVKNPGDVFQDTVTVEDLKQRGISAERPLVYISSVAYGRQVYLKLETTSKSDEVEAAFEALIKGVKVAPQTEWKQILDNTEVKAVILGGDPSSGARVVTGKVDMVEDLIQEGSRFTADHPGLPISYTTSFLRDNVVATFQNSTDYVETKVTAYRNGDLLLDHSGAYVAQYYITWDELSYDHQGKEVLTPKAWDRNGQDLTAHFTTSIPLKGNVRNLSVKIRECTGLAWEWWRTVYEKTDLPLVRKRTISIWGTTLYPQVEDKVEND

B1: 26-5F12.1 (antibody, V domains shown)
VH: VKLQESGAEVKKPGASVKVSCTASGYIFTSYAIHWVRQAPGQRLEWMGWINAGYGNTKYSQKFQGRVSITRDKSASTAYMELSSLRSEDTAVYYCARRGQQLAFDYWGQGTTVTVSS
VL: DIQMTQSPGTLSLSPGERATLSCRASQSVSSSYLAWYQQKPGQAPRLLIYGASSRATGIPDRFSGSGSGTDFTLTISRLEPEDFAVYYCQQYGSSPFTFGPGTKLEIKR
notes: also called PdB26-5F12.1
Regarding B1, the Kd turned out to be 0.82 nM, the koff turned out to be 0.00043 s⁻¹ and the kon worked out at 530000 M⁻¹ s⁻¹.
